From patent publication US20220089678A1

Molecular target: human BCMA on cells (human) (UniProt Q02223)
Assay: cell-based or functional assay

human BCMA on cells (human), sequence (Q02223 whole entry): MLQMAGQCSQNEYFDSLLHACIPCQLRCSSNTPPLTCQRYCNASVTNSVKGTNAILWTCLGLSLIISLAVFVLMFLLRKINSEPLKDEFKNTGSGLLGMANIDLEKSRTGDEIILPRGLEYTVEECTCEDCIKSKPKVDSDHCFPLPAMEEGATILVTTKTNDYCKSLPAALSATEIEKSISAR

B1: CAR with OX40-CD3z cytoplasmic domain of SEQ ID: 105 (protein, part only; not given: anti-BCMA scFv, hinge, transmembrane, part only)
chain, part: RRDQRLPPDAHKPPGGGSFRTPIQEEQADAHSTLAKIRVKFSRSADAPAYQQGQNQLYNELNLGRREEYDVLDKRRGRDPEMGGKPRRKNPQEGLYNELQKDKMAEAYSEIGMKGERRRGKGHDGLYQGLSTATKDTYDALHMQALPPR
Killing (% killed), Effector:target ratio of 1:10: 46%
